Laboratory results reported in US20140112930A1 (published 2014).

How the values were obtained:
[1] = molecular target: T1, Dimeric Human Ang-2FD conjugated to human IgG1 (human); assay: competition ELISA, 16.67 nM Ab, coated hTie-2-mFc
T1 construct: also called Human Ang-2FD-hFc; hAng-2FD-hFc
Experimental: (§1) The plate was then blocked with PBS (Irvine Scientific, Santa Ana, Calif.) containing 0.5% BSA (Sigma-Aldrich Corp., St. Louis, Mo.) for one hour at room temperature. […] Human, mouse or monkey Ang-2FD protein conjugated to human IgG (Ang-2FD-hFc) were added to final concentrations of 2 nM, 8 nM, or 2 nM respectively and incubated for one hour at room temperature. The antibody/Ang-2FD-Fc mixture was then added to the plate containing hTie-2-mFc and incubated for one hour at room temperature. Detection of Ang-2FD-hFc bound to hTie-2-mFc protein was determined with Horse-Radish Peroxidase (HRP) conjugated to a-human IgG antibody (Jackson Immuno Research Lab, West Grove, Pa.) and developed by standard colorimetric response using tetramethylbenzidine (TMB) substrate (BD Biosciences, San Jose, Calif.). Absorbance was read at OD₄₅₀ for 0.1 sec.

[2] = molecular target: T2, Dimeric Monkey Ang-2FD conjugated to human IgG1 (monkey (Macca fascicularis); human); assay: competition ELISA, 16.67 nM Ab, coated hTie-2-mFc
T2 construct: also called Monkey Ang-2FD-hFc
Experimental: as §1

[3] = molecular target: T3, Dimeric Mouse Ang-2FD conjugated to human IgG1 (mouse (Mus musculus); human); assay: competition ELISA, 16.67 nM Ab, coated hTie-2-mFc
T3 construct: also called Mouse Ang-2FD-hFc
Experimental: as §1

Monomeric hAng-2FD = molecular target: T4, Monomeric hAng-2FD (human, UniProt O15123 282-496); assay: SPR, captured Ab
T4 construct: also called fibrinogen-like domain of human Ang2; Human Ang-2FD
T4 sequence: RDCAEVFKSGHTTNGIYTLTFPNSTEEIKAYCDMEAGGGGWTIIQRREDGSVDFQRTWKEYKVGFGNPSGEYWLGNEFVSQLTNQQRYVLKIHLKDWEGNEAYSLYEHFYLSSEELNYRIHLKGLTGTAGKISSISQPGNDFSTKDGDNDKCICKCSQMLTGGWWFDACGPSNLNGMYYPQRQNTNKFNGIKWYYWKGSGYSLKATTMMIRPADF

[4] = molecular target: T5, wild-type human Ang-2 (hAng-2-WT) (human, UniProt O15123 19-496); assay: SPR, captured Ab
T5 construct: called full-length wild-type; also called Full-length wild-type human Ang-2
T5 sequence: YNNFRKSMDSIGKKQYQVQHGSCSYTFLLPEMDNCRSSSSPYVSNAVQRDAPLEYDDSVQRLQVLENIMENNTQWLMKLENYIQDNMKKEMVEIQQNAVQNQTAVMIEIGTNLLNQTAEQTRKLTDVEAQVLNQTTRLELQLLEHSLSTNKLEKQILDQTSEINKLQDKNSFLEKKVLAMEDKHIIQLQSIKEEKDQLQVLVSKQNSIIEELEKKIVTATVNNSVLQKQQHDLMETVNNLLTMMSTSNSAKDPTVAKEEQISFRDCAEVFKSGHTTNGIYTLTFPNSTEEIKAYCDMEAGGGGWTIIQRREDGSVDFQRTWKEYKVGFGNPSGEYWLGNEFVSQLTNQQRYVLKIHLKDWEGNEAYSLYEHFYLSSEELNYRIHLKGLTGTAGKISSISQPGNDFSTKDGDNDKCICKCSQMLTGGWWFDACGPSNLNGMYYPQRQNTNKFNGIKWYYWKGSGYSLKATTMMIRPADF

[5] = molecular target: T1, Dimeric Human Ang-2FD conjugated to …; assay: SPR, captured Ab, RT
Experimental: (§2) Antibody was captured on a goat anti-mouse IgG polyclonal antibody surface, a goat anti-human κ polyclonal antibody (Southern Biotech, Birmingham, Ala.) surface or a goat anti-human IgG polyclonal antibody (Jackson Immuno Research Lab, West Grove, Pa.) surface created through direct amine coupling to a BIACORE™ CM5 sensor chip to form a captured antibody surface. […] Antigen-antibody binding and dissociation were monitored in real time at room temperature. Kinetic analysis was performed to calculate KD and half-life of antigen/antibody complex dissociation.

[6] = molecular target: T2, Dimeric Monkey Ang-2FD conjugated to …; assay: SPR, captured Ab, RT
Experimental: as §2

[7] = molecular target: T3, Dimeric Mouse Ang-2FD conjugated to …; assay: SPR, captured Ab, RT
Experimental: as §2

Biotin-hBA2 = molecular target: T6, Biotin-hBA2 (human, biotinylated (sites not given)); assay: blocking ELISA, biotin-hBA2 to hTie-2-His, mean of two experiments
T6 construct: hBA2 consists of two dimers; also called biotinylated hBA2; human bow-Ang2
Experimental: as §1
For this experiment, human Tie-2 conjugated to a histidine tag (hTie-2-His; SEQ ID NO:526) was used in a similar fashion to the hTie-2-mFc described above. Antibody concentrations from 5 nM were serially diluted three-fold. […] An average IC₅₀ value for each antibody was calculated based on two separate experiments.

Human Ang-2FD-hFc = molecular target: T7, Human Ang-2FD-hFc (human); assay: blocking ELISA, 16.67 nM antibody, Ang-2FD-hFc to coated hTie-2-mFc
T7 construct: also called dimeric human Ang-2FD; human Ang-2FD protein conjugated to human IgG
Experimental: as §1

Mouse Ang-2FD-hFc = molecular target: T8, Mouse Ang-2FD-hFc (mouse (Mus musculus)); assay: as above
T8 construct: also called dimeric mouse Ang-2FD
Experimental: as §1

Row | Percent Blocking of Ang-2FD Binding to Tie-2 [1] | Percent Blocking of Ang-2FD Binding to Tie-2 [2] | Percent Blocking of Ang-2FD Binding to Tie-2 [3] | Kd (Monomeric hAng-2FD) | T1/2 (Monomeric hAng-2FD) | Kd [4] | T1/2 [4] | Kd [5] | T1/2 [5] | Kd [6] | T1/2 [6] | Kd [7] | T1/2 [7] | IC50 (Biotin-hBA2) | Percent Blocking of Ang-2FD Binding to Tie-2 (Human Ang-2FD-hFc) | Percent Blocking of Ang-2FD Binding to Tie-2 (Mouse Ang-2FD-hFc) | Binder
1 | 99.6% | 95.1% | 98.4% | 0.399 nM | 2.61 h | 0.0143 nM | 39.4 h | 0.154 nM | 2.78 h | 0.234 nM | 2.82 h | 0.882 nM | 3.25 h |  |  |  | H2M743N (antibody, V domains shown) VH: EVQLLESGGGLVQPGGSLRLSCAASGFTFRKYAMSWVRQAPGKGLEWVSVISVSGGNTYYADSVKGRFTISRDNSKNTLYLQLNSLRAEDTAVYYCAKDLTDIVLMVYVDYWGQGTLVTVSS VL: DIQMTQSPSSVSASVGDRVTITCRASQDIDRWLAWYQQKPGKAPKLLIYAASSLQSGVPSRFSGSGSGTDFTLTISTLQPEDFATYYCQQANSLPFTFGGGTKVEIK
2 |  |  |  |  |  |  |  |  |  |  |  |  |  | 0.014 nM |  |  | H1M728N (antibody, V domains shown) VH: EVQLVESGGDLVQPGGSLRLSCTASGFTFSKYWMTWVRQAPGRGLEWVANIKEDGNEKYFLDSVKGRFTISRDNAKDLLFLQMNSLRGEDTAVYYCVRDRGIEVAGPFDYWGQGTLVTVSS VL: DIQMTQSPSTLSASVGDRVTVTCRASQTIINWLAWYQQKPGKAPKLLISKASSLESGVPSRFSGSGSGTEFTLTISSLQPDDFATYYCQQYNRYWTFGQGTMVEIK
3 |  |  |  |  |  |  |  |  |  |  |  |  |  | 0.0146 nM |  |  | H2M730N (antibody, V domains shown) VH: EVQLVESGGGLVQPGGSLRLSCAASGFAFRSYWMTWVRQAPGKGLEWVANIQQDGNDKYYVDSVKGRFTISRDNAKNSLYLQMNSLRAEDTAVYYCARDTGIAEAGPFDYWGQGTLVTVSS VL: DIQMTQSPSTLSASVGDRVSITCRASQTIISWLAWYQQKPGKAPRLLIYKASSLESGVPSRFSGSGSGTEFTLTINSLQPDDFATYYCQQYNRYWTFGQGTKVEIK
4 | 99.6% | 94.1% | 98.6% | 4.81 nM | 0.3 h | 0.0679 nM | 7.28 h | 0.295 nM | 0.633 h | 6.17 nM | 0.475 h | 0.61 nM | 0.513 h |  |  |  | H2M742N (antibody, V domains shown) VH: DVQLLESGGDLVQPGGSLRLSCEASGFTFRNYVMIWVRQAPGKGLEWVSGISNSGGTTHYTDSVKGRFTISRDNSKNTLYLQINSLRAEDTAVYYCAKGYLDTSLIEGNWFDPWGQGTLVTVSS VL: NIVMTQSPLSLPVTPGEPASISCRSSQSLLHSNGFNYLNWFLQKPGQSPQLLIYLGSNRASGVPDKFSGSGSGTDFTLNINRVEAEDVGIYFCMQTLQTPLTFGGGTKVEIK
5 | 99.5% | 95.5% | 98.4% | 0.475 nM | 1.49 h | 0.0289 nM | 14.1 h | 0.0989 nM | 1.82 h | 0.5 nM | 4.69 h | 0.143 nM | 3.72 h |  |  |  | H2M744N (antibody, V domains shown) VH: QVQLVQSGVEVKKPGASVKVSCKTSGYTFSNNGFSWVRQAPGQGLEWLGWISGYNGNTNYAQKFQGRVTMTTDTSTSTAYMELRTLRSDDTAVYYCARDQDYSNFHWLDPWGQGTLVTVAS VL: DIQMTQSPSSVSASVGDRVIITCRASQGLSSWLAWYQQKPGTAPKLLIHSASSLQTGVPSRFSGSGSGTEFALTINSLQPEDFGTYYCQQANSFPLTFGGGTRVEIK
6 | 97.7% | 95.8% | 90.9% | 6.13 nM | 0.312 h | 0.131 nM | 5.55 h | 0.484 nM | 0.592 h | 7.33 nM | 0.402 h | 1.7 nM | 0.357 h |  |  |  | H1M732N (antibody, V domains shown) VH: EVQLVESGGGLVRPGGSLRLSCAASGFTFTNAWMSWVRQAPGKGLEWIGQIKSKTDGGTIDYAAPVKGRFTVSRDDSENTLFLQMNSLKTEDTAVYYCAGNWNYVDFDYWGQGTLVTVSS VL: DIQMTQSPSSLSASVGDRVTITCRASQDIRNDLGWYQQKPGKAPKRLIYAASSLQGGVPSRFSGSGSGTEFTLTISSLQPEDFATYYCLQHNSYPFTFGPGTKVDIK [H1M732N, listing 1 of 2 here]
7 |  |  |  |  |  |  |  |  |  |  |  |  |  | 0.0822 nM |  |  | H1M732N (antibody, V domains shown) VH: EVQLVESGGGLVRPGGSLRLSCAASGFTFTNAWMSWVRQAPGKGLEWIGQIKSKTDGGTIDYAAPVKGRFTVSRDDSENTLFLQMNSLKTEDTAVYYCAGNWNYVDFDYWGQGTLVTVSS VL: DIQMTQSPSSLSASVGDRVTITCRASQDIRNDLGWYQQKPGKAPKRLIYAASSLQGGVPSRFSGSGSGTEFTLTISSLQPEDFATYYCLQHNSYPFTFGPGTKVDIK [H1M732N, listing 2 of 2 here]
8 |  |  |  |  |  |  |  |  |  |  |  |  |  | 0.00972 nM |  |  | H1M724N (antibody, V domains shown) VH: QVQLVESGGGVVQPGRSLRLSCAASGFTLSNYGMHWVRQAPGKGLEWVAVIWHDGSNTYYADSVKGRFTISRDNSKNTLYLQMNSLRAEDTAVYYCTREGLDFWSGYYPNWFDPWGQGTLVTVSS VL: DIQMTQSPSSLSASVGDRVTITCRASQGIRNDLGWYQQKPGKAPKRLIYAASNLQGGVPSRFSGSGSGTEFTLTISSLQPEDFAAYYCLQHNIYPLTFGGGTKVEIK
9 |  |  |  |  |  |  |  |  |  |  |  |  |  |  | 95.1% | 93.8% | H1H707P (antibody, human IgG1, V domains shown, Human IgG1) VH: QVQLVESGGGVVQPGRSLRLSCAASGFTFSSYGMHWVRQAPDKGLEWVAVKWDDGSNKYYADSVKGRFTISRDNSKNTLYLQMNSLRAEDTAVYYCAREGPYDFYSGYGAFDIWGQGTMVTVSS VL: not shown
10 | 99.5% | 97.4% | 97.3% | 1.38 nM | 0.465 h | 0.049 nM | 7.98 h | 0.165 nM | 0.715 h | 1.5 nM | 0.682 h | 0.529 nM | 0.425 h |  |  |  | H2M749N (antibody, V domains shown, also called H1M749N; H1M749) VH: QVQLVESGGGVVQPGRSLRLSCAASGFTFSSYGMHWVRQAPGKGLEWVAVIWYDEFNKYYADSVKGRFTISRDNSKNTLYLQMNSLRAEDTAVYYCARERESGYSYGFDYWGQGTLVTVSS VL: EIVMTQSPATLSVSPGERATLSCRAGQSVSSNLAWYQQKPGQAPRLLIYGASTRATGIPARFSGSGSGTEFTLTISSLQSEDFAVYYCQQYNNWWTFGQGTKVEIK
